B1: CAP-Gly domain-containing linker protein 1 (Homo sapiens), P30622-2 (parent)
chain: MSMLKPSGLKAPTKILKPGSTALKTPTAVVAPVEKTISSEKASSTPSSETQEEFVDDFRVGERVWVNGNKPGFIQFLGETQFAPGQWAGIVLDEPIGKNDGSVAGVRYFQCEPLKGIFTRPSKLTRKVQAEDEANGLQTTPASRATSPLCTSTASMVSSSPSTPSNIPQKPSQPAAKEPSATPPISNLTKTASESISNLSEAGSIKKGERELKIGDRVLVGGTKAGVVRFLGETDFAKGEWCGVELDEPLGKNDGAVAGTRYFQCQPKYGLFAPVHKVTKIGFPSTTPAKAKANAVRRVMATTSASLKRSPSASSLSSMSSVASSVSSRPSRTGLLTETSSRYARKISGTTALQEALKEKQQHIEQLLAERDLERAEVAKATSHVGEIEQELALARDGHDQHVLELEAKMDQLRTMVEAADREKVELLNQLEEEKRKVEDLQFRVEEESITKGDLEVATVSEKSRIMELEKDLALRVQEVAELRRRLESNKPAGDVDMSLSLLQEISSLQEKLEVTRTDHQREITSLKEHFGAREETHQKEIKALYTATEKLSKENESLKSKLEHANKENSDVIALWKSKLETAIASHQQAMEELKVSFSKGLGTETAEFAELKTQIEKMRLDYQHEIENLQNQQDSERAAHAKEMEALRAKLMKVIKEKENSLEAIRSKLDKAEDQHLVEMEDTLNKLQEAEIKVKELEVLQAKCNEQTKVIDNFTSQLKATEEKLLDLDALRKASSEGKSEMKKLRQQLEAAEKQIKHLEIEKNAESSKASSITRELQGRELKLTNLQENLSEVSQVKETLEKELQILKEKFAEASEEAVSVQRSMQETVNKLHQKEEQFNMLSSDLEKLRENLADMEAKFREKDEREEQLIKAKEKLENDIAEIMKMSGDNSSQLTKMNDELRLKERDVEELQLKLTKANENASFLQKSIEDMTVKAEQSQQEAAKKHEEEKKELERKLSDLEKKMETSHNQCQELKARYERATSETKTKHEEILQNLQKTLLDTEDKLKGAREENSGLLQELEELRKQADKAKAAQTAEDAMQIMEQMTKEKTETLASLEDTKQTNAKLQNELDTLKENNLKNVEELNKSKELLTVENQKMEEFRKEIETLKQAAAQKSQQLSALQEENVKLAEELGRSRDEVTSHQKLEEERSVLNNQLLEMKKRESKFIKDADEEKASLQKSISITSALLTEKDAELEKLRNEVTVLRGENASAKSLHSVVQTLESDKVKLELKVKNLELQLKENKRQLSSSSGNTDTQADEDERAQESQIDFLNSVIVDLQRKNQDLKMKVEMMSEAALNGNGDDLNNYDSDDQEKQSKKKPRLFCDICDCFDLHDTEDCPTQAQMSEDPPHSTHHGSRGEERPYCEICEMFGHWATNCNDDETF

The source of these data is IntAct's records for PubMed 17563362.

One assay covers variants of B1. The following applies: with tba1a_human TUBA1A.
As for N253A, the “effect of a mutation on the interaction” value is on record as “decreasing interaction strength”. With N253D, the “effect of a mutation on the interaction” value was “decreasing interaction strength”.

In another assay the parent is B1. The following applies: with mare1_human MAPRE1, Q15691.
mare1_human MAPRE1, Q15691, sequence (Q15691 whole entry): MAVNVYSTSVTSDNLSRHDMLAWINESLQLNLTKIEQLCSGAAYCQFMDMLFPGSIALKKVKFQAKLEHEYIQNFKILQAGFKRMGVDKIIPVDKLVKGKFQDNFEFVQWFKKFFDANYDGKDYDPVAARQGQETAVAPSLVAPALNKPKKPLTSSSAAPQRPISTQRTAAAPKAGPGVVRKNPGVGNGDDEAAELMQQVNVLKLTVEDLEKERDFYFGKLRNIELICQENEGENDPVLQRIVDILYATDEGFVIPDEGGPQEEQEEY
Regarding K277A, the “effect of a mutation on the interaction” value was “decreasing interaction strength”. On the same count and under the same terms, next, K224A: “disrupting interaction strength”. Same read-out and setting: under K252A stands “disrupting interaction strength”.
